{"source": "patent EP4538285A1", "molecular_target": "wild-type human PD-1, expressed on cells (PD1-CD28) (human) (UniProt P10747)", "sequence (P10747 other isoform, or with tags, fused parts or gaps limits assumed)": "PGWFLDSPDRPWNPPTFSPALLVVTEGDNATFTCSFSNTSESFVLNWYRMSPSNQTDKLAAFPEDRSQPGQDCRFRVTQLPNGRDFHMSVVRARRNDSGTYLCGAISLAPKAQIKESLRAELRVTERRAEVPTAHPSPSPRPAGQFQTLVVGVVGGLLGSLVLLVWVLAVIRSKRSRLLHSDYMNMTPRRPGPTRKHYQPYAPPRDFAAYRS", "assay": "cell-based or functional assay", "data": [{"substance": "Tilelizumab (antibody)", "values": [{"measurement": "IL-2 concentration (pg/ml) at 0.8 nM", "result": 432, "unit": "pg/mL"}, {"measurement": "IL-2 concentration (pg/ml) at 1.6 nM", "result": 440, "unit": "pg/mL"}, {"measurement": "IL-2 concentration (pg/ml) at 3.2 nM", "result": 440, "unit": "pg/mL"}, {"measurement": "IL-2 concentration (pg/ml) at 6.4 nM", "result": 56.1, "unit": "pg/mL"}, {"measurement": "IL-2 concentration (pg/ml) at 12.8 nM", "result": 36.9, "unit": "pg/mL"}, {"measurement": "IL-2 concentration (pg/ml) at 25.6 nM", "result": 47.7, "unit": "pg/mL"}, {"measurement": "IL-2 concentration (pg/ml) at 51.2 nM", "result": 80.5, "unit": "pg/mL"}, {"measurement": "IL-2 concentration (pg/ml) at 102.4 nM", "result": 126, "unit": "pg/mL"}]}]}
